In US20100267626:

Molecular target: T1, GST-Axin1 (a.a. 1-280), O35625
T1 chain: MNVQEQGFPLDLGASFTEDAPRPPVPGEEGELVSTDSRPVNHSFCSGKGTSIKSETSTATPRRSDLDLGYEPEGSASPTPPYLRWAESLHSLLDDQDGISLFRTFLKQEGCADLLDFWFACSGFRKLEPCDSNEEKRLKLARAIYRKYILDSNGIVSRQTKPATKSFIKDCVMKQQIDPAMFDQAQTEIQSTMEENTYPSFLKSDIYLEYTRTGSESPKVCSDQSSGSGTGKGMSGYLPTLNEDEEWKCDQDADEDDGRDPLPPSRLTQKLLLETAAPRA

B1: Recombinant TNKS2 (in vitro PARsylation assay) (protein)
chain: MSGRRCAGGGAACASAAAEAVEPAARELFEACRNGDVERVKRLVTPEKVNSRDTAGRKSTPLHFAAGFGRKDVVEYLLQNGANVQARDDGGLIPLHNACSFGHAEVVNLLLRHGADPNARDNWNYTPLHEAAIKGKIDVCIVLLQHGAEPTIRNTDGRTALDLADPSAKAVLTGEYKKDELLESARSGNEEKMMALLTPLNVNCHASDGRKSTPLHLAAGYNRVKIVQLLLQHGADVHAKDKGDLVPLHNACSYGHYEVTELLVKHGACVNAMDLWQFTPLHEAASKNRVEVCSLLLSYGADPTLLNCHNKSAIDLAPTPQLKERLAYEFKGHSLLQAAREADVTRIKKHLSLEMVNFKHPQTHETALHCAAASPYPKRKQICELLLRKGANINEKTKEFLTPLHVASEKAHNDVVEVVVKHEAKVNALDNLGQTSLHRAAYCGHLQTCRLLLSYGCDPNIISLQGFTALQMGNENVQQLLQEGISLGNSEADRQLLEAAKAGDVETVKKLCTVQSVNCRDIEGRQSTPLHFAAGYNRVSVVEYLLQHGADVHAKDKGGLVPLHNACSYGHYEVAELLVKHGAVVNVADLWKFTPLHEAAAKGKYEICKLLLQHGADPTKKNRDGNTPLDLVKDGDTDIQDLLRGDAALLDAAKKGCLARVKKLSSPDNVNCRDTQGRHSTPLHLAAGYNNLEVAEYLLQHGADVNAQDKGGLIPLHNAASYGHVDVAALLIKYNACVNATDKWAFTPLHEAAQKGRTQLCALLLAHGADPTLKNQEGQTPLDLVSADDVSALLTAAMPPSALPSCYKPQVLNGVRSPGATADALSSGPSSPSSLSAASSLDNLSGSFSELSSVVSSSGTEGASSLEKKEVPGVDFSITQFVRNLGLEHLMDIFEREQITLDVLVEMGHKELKEIGINAYGHRHKLIKGVERLISGQQGLNPYLTLNTSGSGTILIDLSPDDKEFQSVEEEMQSTVREHRDGGHAGGIFNRYNILKIQKVCNKKLWERYTHRRKEVSEENHNHANERMLFHGSPFVNAIIHKGFDERHAYIGGMFGAGIYFAENSSKSNQYVYGIGGGTGCPVHKDRSCYICHRQLLFCRVTLGKSFLQFSAMKMAHSPPGHHSVTGRPSVNGLALAEYVIYRGEQAYPEYLITYQIMRPEGMVDG
Question: Which “in vitro PARsylation with biotin-NAD+ (SDS-PAGE, streptavidin probe)” value does the source give for B1 here?
Answer: TNKS2 was able to PARsylate an Axin1 fragment (a.a. 1-280) containing the TBD in vitro, which was completely inhibited by XAV939 treatment
